Here are results for one substance from patent US20080045445A1.

In the experiment the target is centromere-binding factor 1 (CBF1) (human) (UniProt Q06330). Briefly: cell-based or functional assay.
centromere-binding factor 1 (CBF1) (human), sequence (Q06330 whole entry): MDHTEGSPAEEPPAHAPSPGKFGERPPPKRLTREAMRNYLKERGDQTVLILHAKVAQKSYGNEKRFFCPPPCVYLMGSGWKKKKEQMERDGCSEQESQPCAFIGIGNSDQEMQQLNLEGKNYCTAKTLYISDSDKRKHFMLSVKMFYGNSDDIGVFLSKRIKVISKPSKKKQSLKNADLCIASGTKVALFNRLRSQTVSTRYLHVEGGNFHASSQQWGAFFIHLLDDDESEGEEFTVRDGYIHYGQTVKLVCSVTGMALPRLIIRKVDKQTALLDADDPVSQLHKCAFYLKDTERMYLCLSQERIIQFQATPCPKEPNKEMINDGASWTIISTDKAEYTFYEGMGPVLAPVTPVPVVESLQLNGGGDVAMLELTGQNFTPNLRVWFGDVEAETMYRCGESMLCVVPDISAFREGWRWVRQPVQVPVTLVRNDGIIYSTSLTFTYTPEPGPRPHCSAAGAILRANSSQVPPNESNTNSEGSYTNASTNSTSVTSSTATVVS

As for “Notch1 intracellular domain (NICD) (from UniProt P46531 1754-2555) (receptor)”, the luciferase activity (CBF1 binding site reporter, wild-type/mutant, relative to beta-galactosidase) came out at 5 fold.
